{"source": "patent US20250179151A1", "about": "“SPIKE FURIN CLEAVAGE IS A SARS-COV-2 TARGETING STRATEGY TO BREAK THE CHAIN OF INFECTION CYCLE” (University of Virginia Patent Foundation, priority 2022, published 2025)", "key": {"[1]": {"tested_on": "pseudoviral spike S0 and S2", "type": "cell-based, SARS-CoV-2"}, "spike S0": {"tested_on": "spike S0", "type": "cell-based, SARS-CoV-2"}, "furin [2]": {"biological_target": "T1, furin (Homo sapiens, UniProt P09958)", "T1 sequence (P09958 108-794)": "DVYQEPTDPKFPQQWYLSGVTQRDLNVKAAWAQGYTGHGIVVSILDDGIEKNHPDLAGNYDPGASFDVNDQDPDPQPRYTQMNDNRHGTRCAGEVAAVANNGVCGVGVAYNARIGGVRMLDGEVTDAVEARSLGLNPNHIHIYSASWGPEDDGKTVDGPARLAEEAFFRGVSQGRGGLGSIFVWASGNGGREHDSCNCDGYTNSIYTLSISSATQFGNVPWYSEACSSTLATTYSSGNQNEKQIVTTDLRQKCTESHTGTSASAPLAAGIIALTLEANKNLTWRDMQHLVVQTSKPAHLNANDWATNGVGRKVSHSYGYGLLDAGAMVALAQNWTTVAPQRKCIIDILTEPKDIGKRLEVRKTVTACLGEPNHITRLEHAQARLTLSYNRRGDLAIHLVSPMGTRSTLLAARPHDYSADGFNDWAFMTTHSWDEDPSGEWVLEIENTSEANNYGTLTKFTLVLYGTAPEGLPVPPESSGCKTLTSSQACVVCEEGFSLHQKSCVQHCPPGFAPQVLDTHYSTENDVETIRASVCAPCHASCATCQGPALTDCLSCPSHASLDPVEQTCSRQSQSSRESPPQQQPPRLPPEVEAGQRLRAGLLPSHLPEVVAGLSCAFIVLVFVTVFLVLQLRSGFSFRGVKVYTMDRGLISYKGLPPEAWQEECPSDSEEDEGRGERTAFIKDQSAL", "type": "biochemical", "conditions": "peptide inserted in rDR5-IgG4-Fc; 10 ng recombinant furin"}, "spike S1/S2 cleavage": {"tested_on": "spike S1/S2 cleavage", "type": "cell-based, SARS-CoV-2"}, "spike cleavage at S1/S2": {"tested_on": "spike cleavage at S1/S2", "type": "cell-based, SARS-CoV-2"}, "293-ACE2 cells": {"tested_on": "293-ACE2 cells", "type": "cell-based", "conditions": "spike transfected 293-ACE2 cells, 24 hours"}, "[3]": {"biological_target": "T2, IgG4-Fc tagged rFOLR1 antigen (UniProt P15328 25-233)", "T2 construct": "extracellular domain; also called recombinant IgG4-Fc FOLR1", "T2 sequence (P15328 25-233 limits assumed)": "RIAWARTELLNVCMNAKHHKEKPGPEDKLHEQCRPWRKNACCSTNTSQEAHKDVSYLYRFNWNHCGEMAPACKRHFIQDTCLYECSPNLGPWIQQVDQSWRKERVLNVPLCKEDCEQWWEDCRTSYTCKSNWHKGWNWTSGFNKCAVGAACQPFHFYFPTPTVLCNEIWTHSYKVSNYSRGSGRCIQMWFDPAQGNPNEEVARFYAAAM", "assay": "ELISA, IgG4-Fc tagged rFOLR1 coated, detection with anti-IgG1-Fc HRP"}, "spike S0 and S2": {"tested_on": "spike S0 and S2", "type": "cell-based, SARS-CoV-2"}, "[4]": {"tested_on": "293-ACE2 and RFP-stable HCC-1806 cells", "assay": "Syncytia in Spike-EGFP transfected co-culture of 293-ACE2 and HCC-1806 cells", "type": "cell-based", "conditions": "co-cultures, 100 μg antibody"}, "furin [5]": {"biological_target": "T1, furin", "assay": "Furin protease activity assay (fluorogenic substrate)", "type": "biochemical", "conditions": "particularly at higher doses; compared with farletuzumab-cFuG1", "protocol": "(§1) FIGS. 2A-2C. Furin inhibitory function and flexibility of Fc-extended FuG1 peptide strategy. (FIG. 2A) The binding kinetics of immobilized biotinylated furin against indicated farletuzumab-FuG1, farletuzumab-cFuG1, and Farletuzumab-IgG1 were measured using BLI. (FIGS. 2B and 2C) FuG1 and cFuG1 antibodies were tested using a competitive inhibitory furin assay kit, which measures fluorescent signal as an indicator of the protease activity kinetics.\nFurin protease activity assay. Different concentrations of farletuzumab-FuGi, farletuzumab-cFuGi (25-250 ng) or furin assay buffer (negative control) were pre-incubated with 25 ng of furin (50 μl, 0.5 ng/μl in furin assay buffer) in a total reaction volume of 100 μl for 10 minutes at room temperature. […] The fluorescence intensity of the reaction mixture was monitored at excitation wavelength of 380 nm and detection of emission at wavelength 460 nm using 96 well microplate reader (BioTek Instruments Inc, USA). […] For kinetic study, fluorescence was measured immediately after adding the protease substrate and data was recorded every 1 minute for 15 min at Ex/Em=380 nm/460 nm.\nTo confirm furin binding and competing function, farletuzumab-FuG1 and farletuzumab-cFuG1 were expressed in the presence of furin inhibitors. Purified antibodies were analyzed for their Fc-extended peptide binding to biotinylated furin using BLI. […]"}, "furin [6]": {"biological_target": "T1, furin", "assay": "BLI binding kinetics against immobilized biotinylated furin", "conditions": "compared to cFuG1", "protocol": "as §1\nBinding studies by BioLayer Interferometry (BLI). Binding measurements were performed using Bio-Layer Interferometry on FortéBio Red Octet 96 instrument (Pall) as described in Shivange et al., 2018. Biotin-Streptavidin based sensors were employed for the studies. Recombinant Fc linked DR5 variants were biotinylated using EZ-Link Sulfo-NHS—SS-Biotin (Thermo Scientific 21331) following the manufacturer's instructions. Unreacted Sulfo-NHS—SS-Biotin reaction was quenched by 50 mM Tris-Cl pH 7.4 and removed via dialyzing against PBS. For binding analysis biotinylated antigen (1 μg/mL) were immobilized on streptavidin (SA) biosensors (Pall) for 300 sec to ensure saturation. Associate and dissociation reactions were set in 96-well microplates filled with 200 μL of unbiotinylated DR5 agonist for 900 seconds. All interactions were conducted at 37° C. in PBS buffer containing 2 mg/ml BSA. These binding observations were also confirmed by biotinylating the agonist antibodies and probed against unbiotinylated DR5-Fc variants. Kinetic parameters (KON and KOFF) and affinities (KD) were analyzed using Octet data analysis software, version 9.0 (Pall).\nTo confirm furin binding and competing function, farletuzumab-FuG1 and farletuzumab-cFuG1 were expressed in the presence of furin inhibitors. Purified antibodies were analyzed for their Fc-extended peptide binding to biotinylated furin using BLI. […] The latter indicated a potential higher competitive furin occupancy time of FuG1 peptide with the increased antibody concentration (Hoare et al., 2020)."}}, "note": "Entries after “also recorded” stand apart in the source; their conditions may differ. Peptide text beside a SMILES is read from it. * marks the point of attachment. Cbz = O=C(OCc1ccccc1)*", "data": [{"molecule": "CC(C)C[C@@H](C=O)NC(=O)[C@H](CC(C)C)NC(=O)[C@H](CC(C)C)NC(=O)OCc1ccccc1", "note": "[MG132] (Cbz-Leu-Leu-Leu-aldehyde)", "values": [{"measurement": "pseudoviral S2 fragment generation", "setting": "[1]", "value": "remained inhibited"}, {"measurement": "pseudoviral spike S0 destabilization", "setting": "[1]", "value": "rescued spike S0 destabilization"}, {"measurement": "furin processing of WT and ΔRRAR spike", "setting": "spike S0", "value": "did not interfere"}, {"measurement": "rescue of spike S0 loss", "setting": "spike S0", "value": "partial rescue of spike S0 loss"}, {"measurement": "total spike S0 signal", "setting": "spike S0", "value": "at least two-fold higher; also recorded: significantly increased"}]}, {"molecule": "EGGGSGRERKARGGCPGS [FuG1 peptide]", "values": [{"measurement": "cleavage by recombinant furin in vitro", "setting": "furin [2]", "value": "not cleaved"}]}, {"molecule": "C[C@H]1CCC/C=C/[C@@H]2C[C@H](O)C[C@H]2[C@H](O)/C=C/C(=O)O1", "note": "[Bfa, Brefeldin-A]", "values": [{"measurement": "spike S1/S2 cleavage", "setting": "spike S1/S2 cleavage", "value": "completely inhibited"}]}, {"molecule": "6.29-IgG1: ACE-2-RBD neutralizing antibody (Rogers et al., 2020); SEQ ID NOs: 11 and 15 (protein) light: DIQLTQSPSSLSASVGDRVTITCRASQTASSYLNWYQQKPGKAPNLLIYAASSLQSGVPSRFSGSGSVTDFTLTISSLQPEDFATYYCQQSYSTPPTFGQGTKVDIKRTVAAPSVFIFPPSDEQLKSGTASVVCLLNNFYPREAKVQWKVDNALQSGNSQESVTEQDSKDSTYSLSSTLTLSKADYEKHKVYACEVTHQGLSSPVTKSFNRGEC heavy: QVQLVQSGSELKKPGASVKVSCKASGYTFATYALNWVRQAPGQGLEWMGWVNTNTGSPTYAQGFTGRFVFSFDTSVSTAYLQIRTLKAEDTAVYYCAVYYYDSGSPGWFDPWGQGTLVTVSSASTKGPSVFPLAPSSKSTSGGTAALGCLVKDYFPEPVTVSWNSGALTSGVHTFPAVLQSSGLYSLSSVVTVPSSSLGTQTYICNVNHKPSNTKVDKKVEPKSCDKTHTCPPCPAPEAAGGPSVFLFPPKPKDTLMISRTPEVTCVVVDVSHEDPEVKFNWYVDGVEVHNAKTKPREEQYNSTYRVVSVLTVLHQDWLNGKEYKCKVSNKALPAPIEKTISKAKGQPREPQVYTLPPSREEMTKNQVSLTCLVKGFYPSDIAVEWESNGQPENNYKTTPPVLDSDGSFFLYSKLTVDKSRWQQGNVFSCSVMHEALHNHYTQKSLSLSLGK", "values": [{"measurement": "inhibition of spike cleavage at S1/S2", "setting": "spike cleavage at S1/S2", "value": "non-inhibitory"}, {"measurement": "syncytia blockade", "setting": "293-ACE2 cells", "value": "significantly more effective; also recorded: significantly effective"}]}, {"molecule": "farletuzumab-FuG1 (antibody, also called Farle-FuG1; Farletuzumab-FuG1 antibody) heavy: EVQLVESGGGVVQPGRSLRLSCSASGFTFSGYGLSWVRQAPGKGLEWVAMISSGGSYTYYADSVKGRFAISRDNAKNTLFLQMDSLRPEDTGVYFCARHGDDPAWFAYWGQGTPVTVSSASTKGPSVFPLAPSSKSTSGGTAALGCLVKDYFPEPVTVSWNSGALTSGVHTFPAVLQSSGLYSLSSVVTVPSSSLGTQTYICNVNHKPSNTKVDKKVEPKSCDKTHTCPPCPAPEAAGGPSVFLFPPKPKDTLMISRTPEVTCVVVDVSHEDPEVKFNWYVDGVEVHNAKTKPREEQYNSTYRVVSVLTVLHQDWLNGKEYKCKVSNKALPAPIEKTISKAKGQPREPQVYTLPPSREEMTKNQVSLTCLVKGFYPSDIAVEWESNGQPENNYKTTPPVLDSDGSFFLYSKLTVDKSRWQQGNVFSCSVMHEALHNHYTQKSLSLSLPGKEGGGSGRERKARGGCPGS light: DIQLTQSPSSLSASVGDRVTITCSVSSSISSNNLHWYQQKPGKAPKPWIYGTSNLASGVPSRFSGSGSGTDYTFTISSLQPEDIATYYCQQWSSYPYMYTFGQGTKVEIKRTVAAPSVFIFPPSDEQLKSGTASVVCLLNNFYPREAKVQWKVDNALQSGNSQESVTEQDSKDSTYSLSSTLTLSKADYEKHKVYACEVTHQGLSSPVTKSFNRGEC", "values": [{"measurement": "binding result", "setting": "[3]", "value": "binds"}]}, {"molecule": "farletuzumab-FuG1: anti-FOLR1 farletuzumab with FuG1 Fc-extended peptide (SEQ ID NO: 44) (antibody) heavy: EVQLVESGGGVVQPGRSLRLSCSASGFTFSGYGLSWVRQAPGKGLEWVAMISSGGSYTYYADSVKGRFAISRDNAKNTLFLQMDSLRPEDTGVYFCARHGDDPAWFAYWGQGTPVTVSSASTKGPSVFPLAPSSKSTSGGTAALGCLVKDYFPEPVTVSWNSGALTSGVHTFPAVLQSSGLYSLSSVVTVPSSSLGTQTYICNVNHKPSNTKVDKKVEPKSCDKTHTCPPCPAPEAAGGPSVFLFPPKPKDTLMISRTPEVTCVVVDVSHEDPEVKFNWYVDGVEVHNAKTKPREEQYNSTYRVVSVLTVLHQDWLNGKEYKCKVSNKALPAPIEKTISKAKGQPREPQVYTLPPSREEMTKNQVSLTCLVKGFYPSDIAVEWESNGQPENNYKTTPPVLDSDGSFFLYSKLTVDKSRWQQGNVFSCSVMHEALHNHYTQKSLSLSLPGKEGGGSGRERKARGGCPGS light: DIQLTQSPSSLSASVGDRVTITCSVSSSISSNNLHWYQQKPGKAPKPWIYGTSNLASGVPSRFSGSGSGTDYTFTISSLQPEDIATYYCQQWSSYPYMYTFGQGTKVEIKRTVAAPSVFIFPPSDEQLKSGTASVVCLLNNFYPREAKVQWKVDNALQSGNSQESVTEQDSKDSTYSLSSTLTLSKADYEKHKVYACEVTHQGLSSPVTKSFNRGEC", "values": [{"measurement": "S0 and S2 in co-culture lysates", "setting": "spike S0 and S2", "value": "only partially reduced S2 conversion"}, {"measurement": "syncytia load reduced", "setting": "[4]", "value": "~30", "unit": "%"}, {"measurement": "inhibition of furin protease activity", "setting": "furin [5]", "value": "significant inhibition"}, {"measurement": "furin association rate (KON)", "setting": "furin [6]", "value": "lower"}, {"measurement": "furin binding affinity (KD)", "setting": "furin [6]", "value": "lower"}, {"measurement": "furin dissociation rate (KOFF), fold reduced", "setting": "furin [6]", "value": "~10", "unit": "fold"}]}]}
